Measured values published in US7262271.

Tested on: Antisera against the PAS1 peptides

P. gingivalis Arg-specific proteinase
Arg-specific proteolytic activity: Antisera against the PAS1 peptides inhibited both Arg- and Lys-specific proteolytic activity

P. gingivalis Lys-specific proteinase
Lys-specific proteolytic activity: Antisera against the PAS1 peptides inhibited both Arg- and Lys-specific proteolytic activity
